Where two headings read alike, the source gives them in different places.
B1: FtsZ (wild type, Escherichia coli) (natural protein, E. coli, UniProt P0A9A6 1-383, looked up)
chain: MFEPMELTNDAVIKVIGVGGGGGNAVEHMVRERIEGVEFFAVNTDAQALRKTAVGQTIQIGSGITKGLGAGANPEVGRNAADEDRDALRAALEGADMVFIAAGMGGGTGTGAAPVVAEVAKDLGILTVAVVTKPFNFEGKKRMAFAEQGITELSKHVDSLITIPNDKLLKVLGRGISLLDAFGAANDVLKGAVQGIAELITRPGLMNVDFADVRTVMSEMGYAMMGSGVASGEDRAEEAAEMAISSPLLEDIDLSGARGVLVNITAGFDLRLDEFETVGNTIRAFASDNATVVIGTSLDPDMNDELRVTVVATGIGMDKRPEITLVTNKQVQQPVMDRYQQHGMAPLTQEQKPVAKVVNDNAPQTAKEPDYLDIPAFLRKQAD
B2: FtsZ_(L169R) (Escherichia coli FtsZ with the L169R lesion) (natural protein, E. coli, UniProt P0A9A6 1-383, looked up)
chain: MFEPMELTNDAVIKVIGVGGGGGNAVEHMVRERIEGVEFFAVNTDAQALRKTAVGQTIQIGSGITKGLGAGANPEVGRNAADEDRDALRAALEGADMVFIAAGMGGGTGTGAAPVVAEVAKDLGILTVAVVTKPFNFEGKKRMAFAEQGITELSKHVDSLITIPNDKLRKVLGRGISLLDAFGAANDVLKGAVQGIAELITRPGLMNVDFADVRTVMSEMGYAMMGSGVASGEDRAEEAAEMAISSPLLEDIDLSGARGVLVNITAGFDLRLDEFETVGNTIRAFASDNATVVIGTSLDPDMNDELRVTVVATGIGMDKRPEITLVTNKQVQQPVMDRYQQHGMAPLTQEQKPVAKVVNDNAPQTAKEPDYLDIPAFLRKQAD

What was measured:
[1] = biological target: the molecule itself; assay: sedimentation assay of polymers
[2] = biological target: the molecule itself; assay: sedimentation assay of polymers; remark: listed apart in the source

Row | Protein | binding result [1] | binding result [2]
1 | B1 | binds | –
2 | B2 | – | binds

Source: paper PMC4641749 (Molecular microbiology, 2015)
